Measurements taken from US20150196533A1, “METHOD FOR CONCURRENT TREATMENT OF PAIN AND DEPRESSION” (The General Hospital Corporation, priority 2012, published 2015).
Entries after “also recorded” stand apart in the source; their conditions may differ.

Legend:
[1] = test system: IDO1 expression in Neuro2a cells; test: IL-6 exposure of cultured Neuro2a cells: IDO1 expression and activity; format: cell-based; conditions: 0.5 ng/ml for 24 hours
Experimental: Neuro2a cells were cultured in minimal essential (EAGLE) medium (Invitrogen) supplemented with 10% fetal bovine serum, 100 U/ml penicillin, and 100 μg/ml streptomycin (Invitrogen) in a humidified atmosphere of 5% CO2 and 95% air at 37° C. Cells were treated with 0.5 ng/ml IL-6 or vehicle and collected 24 hours later for assays (74).
Rats were anesthetized with pentobarbital (50 mg/kg, i.p.) and perfused transcardially with cold 0.9% saline (pH 7.4±0.1) followed by cold 4% paraformaldehyde in a phosphate buffer (PB, 0.1M, pH 7.4±0.1). Brains were removed and placed in the same fixative for post-fixation at 4° C. for 6 hours. For cryoprotection, the samples were kept with cold 30% sucrose in phosphate buffer saline (PBS) at 4° C. until samples sank to the bottom. Coronal brain sections (30 μm) were cut using a cryostat and then floated in PBS. Sections were blocked with 5% normal donkey serum in 0.3% Triton X-100/PBS for 1 hour at room temperature. Free floating sections were incubated overnight at 4° C. on a rocker with one of the following primary antibodies: 1:100, IDO1 rabbit polyclonal (Santa Cruz Biotechnology Inc.); 1:1,000, NeuN mouse monoclonal (Chemicon); 1:1,000, GFAP mouse monoclonal (BD Bioscience Pharmingen); 1:1,000, Iba-1 mouse monoclonal (Abcam). Sections were then washed with PBS three times and incubated with 1:300 FITC- or cyanine3-conjugated secondary antibody (JacksonlnununoResearch Laboratories Inc) for 1 hour at room temperature. Blue fluorescent DAPI (1:300; Invitrogen) was used to stain the nucleus of fixed cultured Neuro2a cells for 15 minutes.
(§1) Rats were sacrificed under pentobarbital anesthesia. The hippocampus was separated from the brain and immediately stored on dry ice and kept at −80° C. until use. Samples were homogenized in a lysis buffer with SDS containing a cocktail of proteinase inhibitors (Roche). Samples were separated on an SDS-PAGE gel (4%-15% gradient gel; Bio-Rad) and transferred to polyvinylidene difluoride filter (PVDF) membranes (Millipore). Membranes were blocked with 5% nonfat dried milk for 1 hour at room temperature and incubated over night at 4° C. on a rocker with one of following primary antibody: 1:200 IDO1 (Santa Cruz Biotechnology Inc.; rabbit polyclonal antibody), 1:200 IDO1 (Novius Biologicals; rabbit polyclonal antibody), 1:500 JAK2 (Santa Cruz Biotechnology Inc.; rabbit polyclonal antibody), 1:1,000 STAT3 (Millipore; rabbit polyclonal antibody), 1:5,000 p-STAT3 (Abcam; rabbit monoclonal antibody). After membranes were washed with PBS×4, membranes were incubated with 1:8,000 HRP conjugated secondary antibody (Amersham, Biosciences) for 1 hour at room temperature on a rocker. The membranes were washed with PBS×4 and blots were visualized in enhanced Chemiluminescent (ECL) solution (Pierce) for 5 minutes and exposed to hyperfilms (Kodak) for 15 minutes. Blots were again incubated in a Stripping buffer (Pierce) for 15 minutes at room temperature on a rocker and reprobed with 1:12,000 anti-β-actin antibody (Abeam Inc.) as a loading control. Western blots were made in triplicates. Band density was measured and normalized against a loading control band.
Total RNA was isolated from hippocampal samples using TRIzol reagent (Invitrogen). Four μg of total RNA was used to synthesize the first strand cDNA using SuperScript III kit (Invitrogen). Four μl of cDNA was put into 20 μl vessel with 1 μl of 20× TaqMan Gene Expression Assay. Taqman Gene Expression Assays (Applied Biosystems) containing primers and a Taqman probe were used to quantify each gene of interest. The genes examined were IL-6 (Rn01410330 m1, M26744.1) and IDO1 (Rn00576778 m1, AF312699.1) for rats and IL-6 (Mm00446190 m1, X54542.1) and IDO1 (Mm00492586 m1, M69109.1) for mice. The reaction was performed in duplicate with the following conditions: denaturing at 95° C. for 30 s, annealing at 60° C. for 2 min, extension at 68° C. for 2 min for 40 cycles using a 7300 Real-Time PCR System (Applied Biosystems). […]

[2] = test system: IDO1 expression in hippocampal organotypic slice culture; test: IL-6 exposure of organotypic hippocampal slice culture: IDO1 expression and activity; format: cell-based, rat; conditions: 100 ng/ml for 24 hours
Description: According to a modified method (Stoppini, L., Buchs, P. A., and Muller, D. 1991. A simple method for organotypic cultures of nervous tissue. J Neurosci. Methods 37:173-182.; Fu, X., Zunich, S. M., O'Connor, J. C., Kavelaars, A., Dantzer, R., and Kelley, K. W. 2010. Central administration of lipopolysaccharide induces depressive-like behavior in vivo and activates brain indoleamine 2,3 dioxygenase in murine organotypic hippocampal slice cultures. J Neuroinflammation. 7:43) organotypic hippocampal cultures were prepared using hippocampus slices from 5 to 8-day-old Wistar rats. Rat pups were euthanized by decapitation and brains were rapidly removed and the hippocampus was separated from the brain. Hippocampal slices (350 μm in thickness) were made using a Mcllwain tissue chopper (Campden Instruments Ltd) and placed in the Gey's balanced salt solution (Sigma-Aldrich) with 2 mg/ml D-glucose. Slices were then placed on 30-mm Millicell-CM (Millipore) porous (0.4 μm) membranes. These membranes were transferred into six-well culture plates filled with an incubation medium (1 ml) consisting of 50% vol/vol minimal essential medium, 25% heat-inactivated horse serum and 25% HBSS (Invitrogen), supplemented with 25 mM D-glucose. Plates were incubated in a humidified atmosphere of 5% CO2 and 95% air at 37° C. Culture medium was changed 3 times a week. Slices were treated with 100 ng/ml IL-6 or vehicle and collected 24 hours later for assays (Hakkoum, D., Stoppini, L., and Muller, D. 2007. Interleukin-6 promotes sprouting and functional recovery in lesioned organotypic hippocampal slice cultures. J Neurochem. 100:747-757).
as §1
Total RNA was isolated from hippocampal samples using TRIzol reagent (Invitrogen). […] Taqman Gene Expression Assays (Applied Biosystems) containing primers and a Taqman probe were used to quantify each gene of interest. […]

B1: IL-6: exogenous IL-6 (recombinant rat IL-6), proinflammatory cytokine (protein, UniProt P20607 25-211, looked up)
Interleukin-6: FPTSQVRRGDFTEDTTHNRPVYTTSQVGGLITYVLREILEMRKELCNGNSDCMNSDDALSENNLKLPEIQRNDGCFQTGYNQEICLLKICSGLLEFRFYLEFVKNNLQDNKKDKARVIQSNTETLVHIFKQEIKDSYKIVLPTPTSNALLMEKLESQKEWLRTKTIQLILKALEEFLKVTMRSTRQT
IDO1 immunoreactivity (FIG. 8A) [1]: increased
IDO activity [KYN/TRP ratio and 5-HT/TRP ratio] [1]: increased
kynurenine/tryptophan ratio (HPLC; FIG. 8D) ([1]; P<0.05): increased kynurenine/tryptophan ratio
serotonin/tryptophan ratio (HPLC; FIG. 8E) ([1]; P<0.05): decreased serotonin/tryptophan ratio
IDO1 mRNA expression (real-time PCR; FIG. 8B) ([1]; P<0.05 vs vehicle): significantly increased
IDO1 protein expression (Western blot; FIG. 8C) ([1]; P<0.05 vs vehicle): significantly increased
IDO1 immunoreactivity (FIG. 8F) [2]: increased IDO1 immunoreactivity; also recorded: increased the expression of IDO1
IDO1 mRNA expression (real-time PCR; FIG. 8G) ([2]; P<0.05): up-regulated; also recorded: increased the expression of IDO1
IDO1 protein expression (Western blot; FIG. 8H) ([2]; P<0.05): up-regulated; also recorded: increased the expression of IDO1
kynurenine/tryptophan ratio in the culture medium (HPLC; FIG. 8I) ([2]; P<0.05): significantly increased; also recorded: increased KYN/TRP ratio
serotonin/tryptophan ratio in the culture medium (HPLC; FIG. 8I) ([2]; P<0.05): decreased 5-HT/TRP ratio
